Experimental data: patent US20240383995A1 (SHANGHAI HENLIUS BIOTECH, published 2024)

Molecular target: T1, Human OX40 expressed on transfected Jurkat or CHO cells (human, UniProt P43489 29-277)
T1 construct: also called human OX40/Jurkat; human OX40/CHO
T1 sequence: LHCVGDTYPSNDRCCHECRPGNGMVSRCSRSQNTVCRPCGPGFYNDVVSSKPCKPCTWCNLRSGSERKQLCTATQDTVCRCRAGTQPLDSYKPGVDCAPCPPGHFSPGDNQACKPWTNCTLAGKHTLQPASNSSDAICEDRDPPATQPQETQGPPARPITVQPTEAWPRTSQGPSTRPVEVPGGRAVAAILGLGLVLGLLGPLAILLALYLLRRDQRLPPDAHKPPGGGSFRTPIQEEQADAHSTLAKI
Assay: flow cytometry on human OX40-transfected Jurkat cells, Alexa Fluor488 anti-human IgG Fc, Geo MFI
Protocol: FIGS. 2A-2C depict whole cell binding of humanized anti-OX40 antibodies to human or cynomolgus OX40 assessed by flow cytometry. Human OX40-expressing Jurkat cells (FIG. 2A), human OX40-expressing CHO cells (FIG. 2B) and cynomolgus OX40-expressing CHO cells (FIG. 2C) were incubated with indicated anti-OX40 bivalent antibodies, and then stained with Alexa Fluor488 conjugated anti-human IgG Fc antibody. The fluorescence intensity was measured by flow cytometry.
Bivalent antibodies of these 15 clones were made by fusing VHH to human IgG1 Fc, expressed in ExpiCHO cells, and purified by Protein A affinity column. Binding affinity of the VHH-Fc bivalent antibodies to human or cynomolgus OX40 was evaluated by flow cytometry using Jurkat cells transfected with human OX40 (human OX40/Jurkat) (FIG. 2A), CHO cells transfected with human OX40 (human OX40/CHO) (FIG. 2B), and CHO cells transfected with cynomolgus OX40 (cyno OX40/CHO) (FIG. 2C). These antibodies with indicated concentrations were incubated with the cells in FACS buffer (3% FBS in PBS) on ice for 30 min, and the free antibodies were washed out with FACS buffer. […] Binding affinity was calculated using GraphPad Prism three parameter logistic equation. […]

B1: 1B3 VHH-Fc bivalent antibody (antibody, human IgG1, V domains shown)
VH: EVQLVESGGGLVQPGGSLRLSCAASGPLGMPSIAWFRQAPGKGLEFVSGIAWSTGDTYYADSVKGRFTISRDNSKNTLYLQMNSLRAEDTAVYYCAADTQVHYMGRHDIRDREEYDYWGQGTLVTVSS
notes: no light chain; also called 1B3-bivalent
With B1 the “EC50 (read off the curve)” value was about 3 nM.
